Assay: label from the status in PepcDB records

Row | Sequence | protein production
1 | MNIELFIQRAEALHKQLADLYQTASVLPWIPPDLLPQAFKELYSNSKLVQLAAEELYHQNEELIQTRSLLEAERQHYHDLFEFAPDGYLVTNAEGIIQEANLTATKLFNAPKHILVDRSVINFIRLEERESFHCELNQLFQTDKAKKLIVRLHQFHGESFDALLTISVVRSQNGKIKSLHWLLSHINENQQQSLGLVNHENYLSQNRPVYVYAKGENIPLNPLVIWYVRQGLVKLSTFCETGEEVLTGLAKTHMVFGSSMTKLPIYQATALADVELVSINFAEIAVSQMLSHILLPKINQQLQQKESFLVITGRRKIEDRLYHLLQFLKQEIGEPVGEKTRLSVRFTHEDIASACCTTRVTITRLMGKLQQQGLISFDSKKHMIINKRLEDRE | failed
2 | MREPVDLRRQRILAAVQARGTARVRDLADELQVSVVTVRRDVEELTREGRLSRGHGVVRSTLPARESAPEAVPAAGDRVAVVVPVRHSYLTETLHGARTVLERAGVRMALHLAPQASGAERPLVERALADGADGLLIAPRWRGRADEEADHEWLAGTGVPTVLMERRPWRGSALHALDSVCSDHWYGAHLAVEHLVGLGHRRIVVATRHDSPTARSLRAAFTEIAGAHPLVERWAWTLVAPEAGADGPYSADETAEPPALMRKVGATAMVLHGDVDALMVVQRLAEEGVRVPEDCSVVAYDDVVAGLAAPPLTAVSPPKAEVGHTAAELLLQRLTEAPGGRRPGRRVELLPRLMVRGSTDRSVEPLDE | failed
3 | AIAPVKKKRKAPGVAAAVAEDAGLKKCKIPSYCRSQPPARLISGEEDFSRKKCLAWFYEYAGPDEVVGPEGMEKFCEDIGVEPENIIMLVLAWKLEAESMGFFTKEEWLKGMTSLQCDCTEKLQSRFDFLRSQLNDISSFKNIYTYAFDFARDKDQRSLDIDTAKSMLALLLGRTWPLFSVFYQYLEQSKYRVMNKDQWYNVLEFSRTVHADLSNYDEDGAWPVLLDEFVEWQKNPSNIIARTVVKTMQTL | failed
4 | MSVPLILTLLAGAATFIGAFLGVLGQKPSNRMLAFSLGFAAGIMLLISLMEMLPAALDTEGMSPVLGYGMFIIGLLGYFGLDRLLPHAHPQDLVQKRQQPLPGSIKRTAILLTLGISLHNFPEGIATFVTASSNLELGFGIALAVALHNIPEGLAVAGPVYAATGSKRTAIFWAGISGMAEILGGVLAWLILGSLVSPIVMAAIMAAVAGIMVALSVDELMPLAKEIDPNNNPSYGVLCGMSIMGLSLVILQTIGIG | failed
5 | MSDAEQPAESETHDHHDHDHEGPGYATPQAAIEAAEPEQTAYVMGLHVGQDVDAPDFLAVVDLDPDSDTYSEIINRVQMPNKGDELHHFGWNACSSSCHMDGLERRHLVIPGQRSSRIHIVDTKERRDPELTKVIEPEEVYEHDLSAPHTVHCIPDGEILISMLGDADGDLPGGFLELNDDFEVQGRWDPPGEIEMNYDYWYQPRQNVMLSTEWAAPKTYYPGFDLDDVEDGKYGQRLNFWDWEDGVIEQTIDLGEDGLIPLEARFLHTPESTHGYVGAALSSNIIHFHESDGRYHAEPVIEFDDREHEGWDMPVPALVTDILISMDDRYLFGSSWLHGEVWMYDISDPSNPRKADSISIGGYFGDIEQVQGRDIVAGPQMLQLSLDGERLYWTTSLFSSWDNQFFPEEAEKGSVMLKADVDPRTGTMSLDRDFLVDFGDLPEGPARAHEIRWPDGDCTSDVWQ | failed
6 | MNLVETAQAIKTGKVSLGIELGSTRIKAVLITDDFNTIASGSYVWENQFVDGTWTYALEDVWTGIQQSYTQLAADVRSKYHMSLKHINAIGISAMMHGYLAFDQQAKLLVPFRTWRNNITGQAADELTELFDFNIPQRWSIAHLYQAILNNEAHVKQVDFITTLAGYVTWKLSGEKVLGIGDASGVFPIDETTDTYNQTMLTKFSQLDKVKPYSWDIRHILPRVLPAGAIAGKLTAAGASLLDQSGTLDAGSVIAPPEGDAGTGMVGTNSVRKRTGNISVGTSAFSMNVLDKPLSKVYRDIDIVMTPDGSPVAMVHVNNCSSDINAWATIFHEFAARLGMELKPDRLYETLFLESTRADADAGGLANYSYQSGENITKIQAGRPLFVRTPNSKFSLPNFMLTQLYAAFAPLQLGMDILVNEEHVQTDVMIAQGGLFRTPVIGQQVLANALNIPITVMSTAGEGGPWGMAVLANFACRQTAMNLEDFLDQEVFKEPESMTLSPEPERVAGYREFIQRYQAGLPVEAAAGQAIKYLEHHHHHH | not failed
7 | SLSRTVHHQQTAEITQQAADFIRYMNAINDYLYQHPERRAAGGQLTSAQLGLPATKNVSHLISQQRVFVWAKEKPGLMGALLEQSGDSALLARVENGRLLDTHGRRISITLPAVIPDQVIIWMN | not failed
8 | MNIMRTAMLLAFMTALFMGVGYLVGGSNGMVIALLMAGGLNFFSYWNSDKIVLRMYGAREVDQHSSPVYYKIVSDLARRASLPQPKVYIIDNAQPNAFATGRNPQNAAVAASTGLLNQLSAEEVAGVMAHELAHIEHRDTLTMTLTATIAGAISMLGNFAFFMGGQRHSSENSHSTGAIGGLLALFVAPFAAMLVQMAISRTREYAADRRGAEICGNPLWLASALSKIAGGGHTVYNEEAEHNPATAHMFIINPLRGEGADSLFSTHPATANRIAALRRQAEEMKGARVENMGWNEKIGLHKKSSDFRDLNSGAQTSVFNEESTVQRIKKRPSWLRYGDSKRPRS | failed
9 | MENSDDIRLIVKIAQLYYEQDMTQAQIARELGIYRTTISRLLKRGRDQGMVTIAINYDYNENLWLEQQLKQKFGLKDVVVVSGNDEDEETQLAMMGLHGAQLLDRLLEPGDIVGFSWGRAVSALVENLPQAGQSRQLICVPIIGGPSGKLESRYHVNTLTYSAAAKLKGESHLADFPALLDNPLIRNGIMQSQHFKTISAYWDNLDIALVGIGSPAIRDGANWHAFYGGEESDDLNARQVAGDICSRFFDIHGAMVETNMSEKTLSIEMNKLKQARYSIGIAMSEEKYSGIIGALRGKYINCLVTNSSTAELLLK | not failed
10 | MGSKNESTASKASGTASEKKKIEYLDKTYEVTVPTDKIAITGSVESMEDAKLLDVHPQGAISFSGKFPDMFKDITDKAEPTGEKMEPNIEKILEMKPDVILASTKFPEKTLQKISTAGTTIPVSHISSNWKENMMLLAQLTGKEKKAKKIIADYEQDLKEIKTKINDKAKDSKALVIRIRQGNIYIYPEQVYFNSTLYGDLGLKAPNEVKAAKAQELSSLEKLSEMNPDHIFVQFSDDENADKPDALKDLEKNPIWKSLKAVKEDHVYVNSVDPLAQGGTAWSKVRFLKAAAEKLTQNLEHHHHHH | not failed
11 | YNPWRNPEGALKRRNTVLNNMLVMGYLSQSQYDEEVARPLGVVSKPTLGPAKFPDFLDIVRRQLRAEYQESDLTNQGL | failed
12 | MKSNLFMKRKLEIGLSLLIGTSVFGGCNNDLAPIRQSQTFPPNLNAPTVFESFSPDSGGVKTQLIIRGQNFGTDTAYLKVTVNNKRAAIVGVADDVIYAIVPARADTGYVRLFVGKDDNVEEYASQTKFIYQFKRNVTTLMGRQGQSGRDDGPYAECKLQRPWFALADKDGALFFIDEGRGQNKNGALRRAQEGWVETLVQNSSGPFQSPTCLAFNPKQDTLYISNMSYGSDIKTSFNILYVTREGGFMDVKGLCKFEKAETQGLAVHPQTGEIFFCNKSGGYIYRFNGPDYEDYEPLFQINRADKIDTRMVFNPEGTALFVVVCNRHCIYKVPYNALTHTFGEPELFAGGWDESGYVNGSGVTARFDNPRQPAFDQDGNMFVPEYGRHTIRKITPTGEVSLYAGLPGQAGFTDGLPEKARFNKPECVTVYLDNSLYVADRDNHLIRRVTVE | failed
13 | MQFPSIEDLRARNTMKWTRYGQGVLPLWVAESDFSTCPAVLQAITDAVQREAFGYQPDGSLLSQATAEFYADRYGYQARPEWIFPIPDVVRGLYIAIDHFTPAQSKVIVPTPAYPPFFHLLSATQREGIFIDATGGINLHDVEKG | failed
14 | MDRDLLRQSLNCHGSSLLSLLRSEQQDNPHFRSLLGSAAEPARGPPPQHPLQGRKEKRVDNIEIQKFISKKADLLFALSWKSDAPATSEINEDSEDHYAIMPPLEQFMEIPSMDRRELFFRDIERGDIVIGRISSIREFGFFMVLICLGSGIMRDIAHLEITALCPLRDVPSHSNHGDPLSYYQTGDIIRAGIKDIDRYHEKLAVSLYSSSLPPHLSGIKLGVISSEELPLYYRRSVELNSNSLESYENVMQSSLGFVNPGVVEFLLEKLGIDESNPPSLMRGLQSKNFSEDDFASALRKKQSASWALKCVKIGVDYFKVGRHVDAMNEYNKALEIDKQNVEALVARGALYATKGSLNKAIEDFELALENCPTHRNARKYLCQTLVERGGQLEEEEKFLNAESYYKKALALDETFKDAEDALQKLHKYMQVIPYFLLEI | failed

Reference: a protein production outcome set (Wang et al. 2014)
